A short description of the series: yeast display, Sf9 membrane polyspecificity reagent, FACS + sequencing; frameworks hold sequencing errors. An outline of the steps: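 A synthetic nanobody library was expressed on Saccharomyces cerevisiae BJ5465 by galactose induction for 36–48 hours. The library was stained for 1 hour at 4 °C with 10% biotinylated, detergent-solubilized Sf9 membrane reagent and enriched with streptavidin microbeads before FACS. Low and high (top ~1%) gates were set on anti-HA fluorescence for expression and streptavidin fluorescence for reagent binding, and each polyreactivity label reflects the gate of origin.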
With “QVQLVESGGGLVQAGGSLRLSCAASGSTFIDYAMGWYRQAPGKERELVAAITNGGNTKYADSVKGRFTISRDNAKNTVYLQMNSLKPEDTAVYYCAREPSIFTPSYDYWGQGTQVNVSS”, the “polyreactivity (PSR sort gate)” value is listed as “low polyreactivity”.

Consider “QVHLVDSGGGLVQAGGRLRLSCPASVSTFYYYVKGWYRQPPGKERELVAAISSGCHTNYADSVKGRFTISRDNAKNTVYLQMNSLIPEDSAVYYCAAKPRRGTLLRYGYWGQGTQVTVSS”, for which the “polyreactivity (PSR sort gate)” value is “high polyreactivity”. The result for “QVQLVETGGGLVQAGGSLRLSCAASGRTFYYNGRGWYRQAPGKERELVAAITSGGTTSYADSVKGRFTISRDNAKNTVYLQMNSLKPEETAVYYCNADYWAVNYDYWGQGTQVTVSS” reads “low polyreactivity”. With “QVQLVESGGGLVQAGGSLRLSCAASGITFGVNTMGWYRQAPGKERELVAAITWRGGSTYYADSVKGRFTISRDNAKNTVYLQMNSLKPEDTAVYYCAAPYDGPVLTVGYDYWGQGTQVTVSS”, the “polyreactivity (PSR sort gate)” value is reported as “low polyreactivity”. Under “QVQLVESGGGLVQAGGSLRLSCAASGSIFPDYGMGWYRQAPGKEREFVAAIDWSGTSTYYADSVKGRFTISRDNAKNTVYLQMNSLKPEDTAVYYCAARWDKSPFKLYDSWGQGTQVTVSS” stands “low polyreactivity”; under “QVQLVESGGGLVQAGGSLRLSCAASGSTFSYYAMGWYRQAPGKERELVAAITTSGGRTYYADSVKGRFTISRDNAKNTVYLQMNSLKPEDTAVYYCNARSGRLGDYWGQGTQVTVSS”, “high polyreactivity”. The result for “QVQLVESGGGLVQAGGSLRLSCAASGRTFNYYGMGWYRQAPGKERELVAAISRGGTTNYADSVKGRFTISRDNAKNTVYLQMNSLKPEDTAVYYCAKGRSHWHSYQYVRPNYDYWGQGTQVTVSS” reads “low polyreactivity”. The result for “QVQLVESGGGLVQAGGSLRLSCAASGITFIGYVMGWYRQAPGKERELVAAISRSGASTYYADSVKGRFTISRDNAKNTVYLQMNSLKPEDTAVYYSATVRYHPAYYYWGQGTQVTVSS” reads “high polyreactivity”. Turning to “QVQLVESGGGLVQAGGSLRVSCAASGSIFQANAMGGYRQAPGKERELVAASRWSGGSTNYPDSVKGRFSISRDNAKNTVYLPMNSLKPEDTAVYYCAAKRFSSPYWEYYWGQGTQVTVSS”, the “polyreactivity (PSR sort gate)” value is listed as “high polyreactivity”. The result for “QVQLVESGGGLVQAGGSLRLSCAAYGRIFRGYAMGRYRQAPGKEREFVAAITKNGGSTYYADSVKGRFTISRDNAKNTVYLQMNSLKPEDTAVYYCAVRALDPYTGKSDYWGQGTQVTVSS” reads “low polyreactivity”; that for “QVQLVESGGGLVQAGGSLRLSCAASGSTFTVNAMGWYREAPGKERELVAAITTSGGSTYYADSVKGRFTISRDNAENTVYFQMNSLKPEDTAVYYCNADGPWREVERPFRKEGNYWGQGTQVTVSS”, “low polyreactivity”. Regarding “QVQLVESGLCLVQAGGSLRLSCAASGRIFRSYLMGWYRPAPGKERELVAAISNSGTRTYYADSVKGRFTISRDNAKNTVYLQKNSLKPEDTAVYYFITRRGRGSVDYDYWGQGSQVTVSS”, the “polyreactivity (PSR sort gate)” value is recorded as “high polyreactivity”. Under “QVQLVESGGGLVQAGGSLRLSCAASGRIIWSNTMGWYRQAPGKESELVAASSGRGGSTYYADSVKGRFTISRDNAKNTVYLQMNSLKPEDTAVYYCAAKPTRSRKIYEYWGQGTQVTVSS” stands “low polyreactivity”. In the case of “QVQLVESGGGLVQAGGSLRLTCAASGLTFSFYAMGWYRQAPGKEWELVAALSKGGGSTSYADSVKGRFTISRDNAKNTFYLQRNSLKPGDTAVYSCAAKDYKAPNKRLYDYWGQGTQVTVSS”, the “polyreactivity (PSR sort gate)” value was “high polyreactivity”. “QVQLVESGGGLVQAGGSLRLSCAASGSIFNWYAMGWYRRAPGKERELVAAISQSGTRTFYADSVKGRFTISRDNAKNTVYLQMNSLKPEDTAVYYCNTVKAGYDGYDRDYWGQGTQVTVSS”: the “polyreactivity (PSR sort gate)” value is “high polyreactivity”. The result for “QVQLVESGGGLVQAGGSLRLSCAASGFTFFGDYAMGWYRQAPGKERELVAAIDWSGGTTYYADSVKGRFTISRDNAKNTVYLQMNSLKPEDTAVYYCAKDYYSDGIYYEYWGQGTQVTVSS” reads “high polyreactivity”.

Consider “QVQLVESGGGLVQAGGSLRLSCAASGRIFPANDMGWYRQAPGKERELVASIRRGGITYADSVKGRFTISRDNAKNTVYLQMNSLKPEDNAVYYCNADYRGWGYHMDYWGQGTQVTVSS”, for which the “polyreactivity (PSR sort gate)” value is “low polyreactivity”. Under “QVQLVESGGGLVQAGGSLRLSCAASGRTLIAYAMGWYRQAPGKEREFVAAIRADDGRTYYADSVKGRFTISRDNAMNTVYLQMNSLKPDDTAVYYCATKADKRYRFGYWGQGTQVTVSS” stands “high polyreactivity”; under “QVQLVESGGGLVQAGGSLRLSCAASGRTFYFYAMGWYRQAPGKERELVAAISSGASTYYADSVKGRFTISRDNAKNTVYLQMNSLKPEDTAVYYCAAEFWTQWSGYEYWGQGTQVTVSS”, “high polyreactivity”; under “HDQHVESGGGLVQAGGSLRLSCAASGFTFYFYTMGWYRQAPGKERELVAAITGSGGSTYYADSVKARFTFSRDNAKNTVYLQMNSLKPEDTAVYYCAASYYPERVATWRGYYYWGQGTQVTVSS”, “high polyreactivity”. Under “QVQLVESGGGLVQAGGSLRLSCAASISSSNAMGWYRQAPGKERELVAAIRWSGTSTYYADSVKGRFTISRDNANNTVYLQMNSLKPEETAVYYCAARYVRVGYDYWGQGTQVTVSS” stands “high polyreactivity”; under “QVQLVESGGGLVQAGGSLRLSCAASGFTFWPYAMGWYRQAPGKERELVAAITWSGGRTYYADSVKGRFTISRDNAKNTVYLQMNSLKPEDTAVYYCNVDAYGYRPYRYYYWGQGTQVTVSS”, “high polyreactivity”.

As for “QVQLVESWGGLVQAGGSLRLSCAASGRTFSRYAMGWYRQAPRKERELVAAISSRGGSTYYADSVKGRFTISRDFANNTVYLQMNSLYPEDTAVYYCNADSKVDPYGYDYWGQGTQVTVSS”, the “polyreactivity (PSR sort gate)” value is recorded as “high polyreactivity”. Turning to “QVQLVESGGGLVQAGGSLRLSCAASGSIFWSYAMGWYRQAPGKERELVAAITWGCGSTNYADSVKGRFTISRDNAKNTVYLQMNSLIAEDTGVYYCATDNRYVVDYDYWGQGTQVTVSS”, the “polyreactivity (PSR sort gate)” value was “high polyreactivity”.

Turning to “QVQLVESGGGLVQAGGSLRLSCAASGSIFAVYAMGWYRQAPGKERELVAVITRSGGSTYYADSVKGRFTISRDNAKNTVYLQMNTLKPEDTADYYCAARTGYGYTRYEYWGQGTQVTVSS”, the “polyreactivity (PSR sort gate)” value is reported as “high polyreactivity”. The result for “QVQLVESGGGLVQAGGSLRLSCAASGRIFYTNAMGWYRQAPGKERELVAVISWGGDTTYYADSVKGRFTISRDNATNTVYLQMNSLKPEDTAVYYCNADWGPTYEIYDSWGQGTQVTVSS” reads “low polyreactivity”; that for “QVQLVESGGGLFQAGGSLRLSCAASGFTFPAYNMGWYRQAPRKEMEMVAAITSSGGNTYYADSVKGRFTISRHNAKNTVYLQMNSLKPEDTAVYYWATFSVRWPSNDHVRYDYWGHGTQVTVSS”, “low polyreactivity”; that for “QVQLVESGGGLVQAGGSLRLSCAASGRTFRYYAMGWYRQAPGKVRELVAAINWSGGSTYYADSVKGRFTISRDNAKNTVYLQMNSLKPEDTAVYYCAAVGHPSPPRTDLYYWGQGTQVTVSS”, “low polyreactivity”.

For “QVQLVESGGGLVQAGGSLRLSCAASGFTFNAYAMGWYRQAPGKERELVAAINVSGGITYYADSVKGRFTISRDNAKNTVYLQMNSLNPEDTAVYYCAKGLDVVQRSEFDYWGQGTQVTVSS”, the “polyreactivity (PSR sort gate)” value is reported as “low polyreactivity”. For the sequence “QVQLVESGGGLVQAGGSLRVSCAPSGRTFRYNTMGWYRPAPGKERELVARITWSGGSTYYADSVKGRFTISRDNAKNTVYLQMNSLKPEDTAVSYCAAGSGWRFDYWGQGTQVTVSS”, the “polyreactivity (PSR sort gate)” value is recorded as “low polyreactivity”. Under “QVQLVESGGGLVQAGGSLRLSCAASGSTFKYYAMGWYRQAPGKERELVAAISASGGTTYYADSVKGRFTISRDNAKNTVYVQMNSLKPEDTAVYDCAARYLTTFSRTDMEYWGQGTQVTVSS” stands “low polyreactivity”; under “QVQLVESGGGLVQAGGSLRLSCAASGNTFSAYAMGWYRQAPGKERELVAAISSRGGSTYYADSVKGRFTISRDNAKNTVYLQMNSLKPEDTAVYYCAAGYRGVANRKWIYYYWGQGTQVTVSS”, “high polyreactivity”; under “QVQLVESGGGLVQAGGSLRLSCAASGFTFEYYAMGWYRQAPGKERELVAVITWNGGSTYYADSVKGRFTISRDNAKNTVYLQMNSLKPEDTAVYYCNVVPYLYNGGSHRYNYWGQGTQVTVSS”, “high polyreactivity”. As to “QVQLEESGGGLVQAGGSLRVSCAASGSILIPNAMGWYRQAPGKERELVASISKSGGSTYYADSVKGRFTISRDTAKNTVYLQMNSLKPEDTAVYYCAAAFVSVRKRYGYWGQGTQVTVSS”, the “polyreactivity (PSR sort gate)” value is recorded as “high polyreactivity”.

Consider “QVQLVESGGGLVQAGGSLRLSCAASGIIFVHYALGWYRQAPGKEWQLVAAITSGGSTKYADSVKGRFTISRDNAKNTVYLQMNSLKPEDTAVYYCAAGHYVYWYRYQLGGYNYWGIGTQVTVSS”, for which the “polyreactivity (PSR sort gate)” value is “high polyreactivity”.

In the case of “QVQLVESGGGLVQAGGSLRLSCAASGSTFINYAMGWYREAPGKERELVAAISKGGGSTYYADSVKGRFTISRDTAKNTVYLQINSLKPEDTAVYDCARARSGGSHREYYWGQGTQVTVSS”, the “polyreactivity (PSR sort gate)” value is “high polyreactivity”.

For “KFQLVESGGGLVQAVGSLRLSCDASGRTFYYYDMGWYRQAPGKERELVAAITWDGGRTYYADSVMGRFTISRDNAKNTVYLQMNSLKPEDTAVYYCNADDFFEILGECTLMDYWGQGTQVTVSS”, the “polyreactivity (PSR sort gate)” value was “low polyreactivity”. The result for “QDQLVESGGGLVQAGGSLRLSCASSGFTFSKNAMGWYRQAPGKERELVAAISRGGGRTYYADSVKGRFTISRDNAKNTVYLQMNSLKPEDTAVYYCNVEKVGPGYDYWGQGTQVTVSS” reads “high polyreactivity”; that for “QVQLVESAAGLVQAGGSLRLSCAASGFTFSFYTMGWYRQAPAKDRELVAAISSGGTPYYADSVKGRFTISRDNAKNTVYLQMNSLKPEDTAVYYCAAYGRYASWIEFYSNYDYWGQGTQVTVSS”, “low polyreactivity”; that for “QVPLVESGGGIDQAGGSLRLSCAASGFIFCTYTMGWYIQAPGNEWELVAAISKSSGSTYYADSVKGRFTISRDNAKKTVYLQMNSLKPEDTAVYYCAAPTRSYGTPPYDYWGQGTQVTVSA”, “low polyreactivity”.

In the case of “QLQPVESGGGLVQAGGSLRLSSAASGSTFVSYDRGWYRQAPGKERALVAVITSGGSTNYADSVKGRFTISRDNAKNTVYLQMNSLKPEETAVYYCAKRRYGRSGGSRYHYWGQGTQVTVSS”, the “polyreactivity (PSR sort gate)” value is “high polyreactivity”.

The values above are taken from the nanobody polyreactivity screen of Harvey et al. (2022).
